Reference: patent US8343490B2, “Monoclonal antibody SC104 and derivative thereof specifically binding to a sialyltetraosyl carbohydrate as a potential anti-tumor therapeutic agent” (Cephalon Australia Pty Ltd, priority 2004, dated 2013)

Key:
Assay type in all cases: binding
C170 cells = test: C170 cell ELISA (hybridoma screening)
Protocol: ELISA. Antibody responses in the serum of immunised mice were assayed by titration using a standard non-competitive ELISA procedure. 96-well tissue culture plates were coated with C170 cells at a cell density of 5×10^5 cells/ml (100 μl/well) in 10% foetal bovine serum in RPMI 1640. The plates were incubated overnight at 37° C., 5% CO2, 95% air. The cells were then washed twice in phosphate buffered saline (pH7.3, PBS) prior to being fixed with 0.5% glutaraldehyde in PBS (10 min, 25° C., 100 μl/well). Remaining non-specific binding sites were blocked by incubation for 1 hr with 1% bovine serum albumin (fraction V from Sigma Chemicals Ltd.) in PBS. The cells were washed three times with a washing solution consisting of 0.05% Tween 20 in phosphate buffered saline before assaying post-boost serum for binding to C170 cells using a non-competitive sandwich ELISA. The pre-immunisation serum was used as a negative control. • Immunohistochemistry. Binding of hybridoma supernatants to tumour tissues was determined by indirect immunoperoxidase staining of frozen colorectal tumour sections. […] The bound antibody was detected with rabbit anti-mouse Ig conjugated to peroxidase (Dako Ltd., Bucks., UK) and following extensive washing the slides were stained with 0.05% diaminobenzidine and 0.01% H2O2 in 0.05M Tris-HCl, pH7.6 and counterstained with haematoxylin. […]

CEA = target: T1, CEA (Homo sapiens, UniProt P06731); test: ELISA on purified CEA; settings: FIG. 4
T1 construct: from tissue
T1 sequence (P06731 35-676): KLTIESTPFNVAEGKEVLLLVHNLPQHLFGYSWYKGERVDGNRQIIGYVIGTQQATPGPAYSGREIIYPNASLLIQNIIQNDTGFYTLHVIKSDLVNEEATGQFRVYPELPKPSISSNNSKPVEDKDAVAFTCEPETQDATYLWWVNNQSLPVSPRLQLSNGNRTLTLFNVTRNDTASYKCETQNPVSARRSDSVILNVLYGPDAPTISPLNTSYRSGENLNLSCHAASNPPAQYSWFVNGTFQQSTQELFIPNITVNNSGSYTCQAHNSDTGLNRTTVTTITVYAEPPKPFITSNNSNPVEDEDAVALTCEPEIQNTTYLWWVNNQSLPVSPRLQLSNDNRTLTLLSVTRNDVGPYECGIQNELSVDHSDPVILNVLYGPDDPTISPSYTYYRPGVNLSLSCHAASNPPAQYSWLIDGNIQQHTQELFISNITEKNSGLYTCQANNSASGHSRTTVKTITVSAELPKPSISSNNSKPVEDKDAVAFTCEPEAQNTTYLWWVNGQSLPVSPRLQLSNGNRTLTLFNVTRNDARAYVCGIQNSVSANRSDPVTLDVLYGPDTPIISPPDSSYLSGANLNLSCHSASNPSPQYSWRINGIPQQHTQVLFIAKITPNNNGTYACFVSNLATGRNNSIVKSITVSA
Protocol: (§1) • Binding to purified antigen preparations. […] Binding of SC104 mab was assayed by ELISA as described above.

[1] = Blood group antigen ELISA, Lewis y
Protocol: The Lewis ^y hapten and the type I and type II H blood group antigen (Sigma, Poole, Dorset) were dried microtitre plates by overnight incubation at 37° C. Binding of SC104 mab was assayed by ELISA as described above.

[2] = ELISA on tumour glycolipid extract; settings: FIG. 4
Protocol: as §1

B1: SC104: mouse IgG1 monoclonal antibody specific for a sialyltetraosyl carbohydrate, raised by immunisation with colorectal cancer cell lines (antibody, V domains shown)
VH: DVQLQESGPDLVKPSQSLSLTCTVTGYSITSGYSWHWVRQFPGNKMEWMGHIHFSGRPTYNPSLSSRISITRDTSKNQFLLQLKFVTTEDTSTYFCARKGKGSDDGLNYWGQGISVTVSS
VL: ENVLTQSPVIMSASPGEKVTMTCSASSSLSYIHWYQQKSRTSPKLWIYDTSNLASGVPGRFSGSGSGNSYSLTISSMEAEDVATYYCFQGSEYPLTFGGGTKLEMT
C170 cells
  C170 ELISA (OD 405 nm): 0.301 OD 405 nm
CEA
  staining of CEA by ELISA: No significant staining
[1]
  Binding to blood group antigens by ELISA: Lewis ^y: 0.057 OD 405 nm
[2]
  binding to methanol/chloroform tumour glycolipid extract by ELISA: A similar result was obtained
